Source: article PMC9929924, “Phosphorylation of the receptor protein Pex5p modulates import of proteins into peroxisomes” (Biological Chemistry, 2022)

Experiments:
[1] = tested on: GFP-SKL import in pex5Δ yeast cells; assay: Fluorescence microscopy, import of GFP-SKL in cells expressing Pex5p variants; assay type: cell-based, S. cerevisiae; settings: pex5Δ cells expressing plasmid-encoded Pex5p variant and GFP-SKL, grown in oleate
Protocol: Cells expressing distinct Pex5p variants (wildtype, Pex5p^2A or Pex5p^2D) and GFP-SKL were grown overnight in 50 ml YNO medium supplemented with 0.1% (w/v) glucose to an OD600 of 1–1.5. Aliquots of 5.4 ml were taken and formaldehyde was added to a final concentration of 3.7% (v/v). Samples were incubated for 10 min at RT with slight agitation. Cells were collected by centrifugation (5 min at 2000 g), resuspended in 1 ml of 0.1 M potassium phosphate buffer (pH 6.8) containing 3.7% (v/v) formaldehyde and incubated for 1 h at RT with slight agitation. Following centrifugation (30 s at 16,000 g), cells were resuspended in 1 ml of 0.1 M potassium phosphate buffer (pH 6.8) containing 10 mM ethanolamine and incubated for further 10 min at RT. Subsequently, cells were washed twice with phosphate-buffered saline (PBS) and resuspended in 10–20 µl of PBS containing 0.1% (v/v) Triton X-100. Fixed cells were analyzed within 48 h after preparation.
Fluorescence microscopy was performed using a Zeiss Axio Observer.Z1 microscope equipped with an alpha Plan-Aprochromat 100× objective and an AxioCam MR R3. GFP signal was visualized with a 38 HE filterset from Zeiss. Images were processed using Adobe Photoshop CS5 (version 12.0.4 ×64; Adobe Systems Incorporated). To document the structural integrity of cells, bright field images were acquired, adjusted in a way that only the cell boundaries were visible and subsequently added into the blue channel in Photoshop as reported before ([Motley and Hettema 2007]).

[2] = Native MS of purified individual proteins (oligomeric state); assay type: physicochemical; settings: Pex5p 7.5 µM, Pcs60p 5 µM; 200 mM ammonium acetate pH 6.8
Protocol: Recombinantly expressed Pex5p variants and Pcs60p protein solutions were buffer-exchanged into 200 mM ammonium acetate pH 6.8 at 4 °C using microcentrifuge gel filtration columns Bio-Spin 6 (Bio-Rad Laboratories). Protein concentration was determined spectrophotometrically using a Nanodrop 2000c (Thermo Scientific) by measuring absorption at 280 nm. Proteins were either analyzed individually or as mixture of Pex5p variant with Pcs60p at indicated concentrations to study receptor-cargo complex formation. For this, Pex5p^WT or Pex5p^2D mutant was incubated with Pcs60p for 5 min on ice. Spectra were obtained using a Synapt HDMS (Waters and MS Vision) equipped with an m/z 32,000 range quadrupole by introducing 3 µl sample with an in-house manufactured gold-coated capillary needle (Brosilicate Thin Wall with Filament Clark Capillary Glass, OD 1.0 mm, ID 0.78 mm; Harvard Apparatus). […]
Spectra were calibrated externally using cesium iodide. […] Quantification of complex abundances was performed based on area under signals using a similar approach as previously described ([Danquah et al. 2019]; [Yefremova et al. 2017]). To compare stabilities of receptor-cargo complexes for Pex5p^WT and Pex5p^2D the collisional activation was quantified by calculating center-of-mass energies (E com) based on the abundance-weighted mean charge states of the 1:1 complex for each acceleration voltage. […]

[3] = Circular dichroism, folding of Pex5p variants; assay type: physicochemical; settings: far-UV CD; 25 mM phosphate buffer pH 7.5, 150 mM NaF; 0.2 mg ml^−1
Protocol: Circular dichroism (CD) experiments were performed on a J-810 spectropolarimeter (Jasco). Proteins were dialyzed against 25 mM phosphate buffer (pH 7.5), 150 mM NaF. Far-UV spectra were recorded between 180 and 280 nm, using a 1-mm cuvette and a concentration of 0.2 mg ml^−1 protein. The machine settings were 1 nm bandwidth, 1 s response, 1 nm data pitch and 100 nm min^−1 scan speed.

[4] = tested on: yeast cells; assay: Growth of yeast cells expressing Pex5p variants; assay type: cell-based, S. cerevisiae; settings: n = 3; for growth in oleate: oleate as sole carbon source (YNO medium)
From the text: Synthetic complete (SC) medium consisted of 0.17% (w/v) yeast nitrogen base (YNB) without amino acids, 0.5% (w/v) ammonium sulfate, and 0.3% (w/v) glucose (pH 6.0) supplemented with appropriate amino acids ([Schummer et al. 2017]). YNO medium contained 0.1% (v/v) oleic acid, 0.05% (v/v) Tween 40, 0.5% (w/v) ammonium sulfate, and 0.17% (w/v) yeast nitrogen base without amino acids, adjusted to pH 6.0 and supplemented with appropriate amino acids. For growth under peroxisome-proliferating conditions, cells were cultured at 30 °C in SC medium until they reached an optical density at 600 nm (OD600) of 1–1.5 and then shifted to YNO medium to induce peroxisome proliferation. Cells were grown for further 12–16 h or as indicated. For growth of cells in glucose medium, SC medium was supplemented with 2% (w/v) glucose.

B1: Pex5p^WT: Pex5p wildtype, PTS1 receptor of S. cerevisiae (protein)
chain: MDVGSCSVGNNPLAQLHKHTQQNKSLQFNQKNNGRLNESPLQGTNKPGISEAFISNVNAISQENMANMQRFINGEPLIDDKRRMEIGPSSGRLPPFSNVHSLQTSANPTQIKGVNDISHWSQEFQGSNSIQNRNADTGNSEKAWQRGSTTASSRFQYPNTMMNNYAYASMNSLSGSRLQSPAFMNQQQSGRSKEGVNEQEQQPWTDQFEKLEKEVSENLDINDEIEKEENVSEVEQNKPETVEKEEGVYGDQYQSDFQEVWDSIHKDAEEVLPSELVNDDLNLGEDYLKYLGGRVNGNIEYAFQSNNEYFNNPNAYKIGCLLMENGAKLSEAALAFEAAVKEKPDHVDAWLRLGLVQTQNEKELNGISALEECLKLDPKNLEAMKTLAISYINEGYDMSAFTMLDKWAETKYPEIWSRIKQQDDKFQKEKGFTHIDMNAHITKQFLQLANNLSTIDPEIQLCLGLLFYTKDDFDKTIDCFESALRVNPNDELMWNRLGASLANSNRSEEAIQAYHRALQLKPSFVRARYNLAVSSMNIGCFKEAAGYLLSVLSMHEVNTNNKKGDVGSLLNTYNDTVIETLKRVFIAMNRDDLLQEVKPGMDLKRFKGEFSF
modifications: left off: His6, N-terminal, state not stated
notes: Pex5p wildtype, PTS1 receptor of S. cerevisiae
- subcellular distribution of GFP-SKL [1]: import of GFP-SKL is restored
- subcellular distribution of GFP-SKL ([1]; listed as Pex5p^2A): no import phenotype
- subcellular distribution of GFP-SKL ([1]; listed as Pex5p^2D): both a punctate staining and diffuse cytosolic fluorescence, suggesting a reduced import of GFP-SKL into peroxisomes
- oligomeric state in native MS [2]: mainly detected in a monomeric state
- folding [3]: folded with no major structural changes
- growth on glucose ([4]; SC medium containing 2% glucose, compared to Pex5p^WT cells): equivalent to Pex5p^WT cells
- growth in oleate ([4]; listed as Pex5p^2A): grew similar to wildtype cells in oleate
- growth in oleate ([4]; listed as Pex5p^2D): significant growth defect
